Assay results published in patent publication US20180119166A1 (UNIVERSITY INDUSTRY FOUNDATION YONSEI UNIVERSITY, published 2018).

B1: 6x-histidine-fused LOS4 (LOS4-His) (enzyme)
chain: MADTVEKVPTVVESSSSSTVEASNSAEKTEPTTEKKKWGDVEDDDDEEEAVSELNSLSIKEEEKPDSILEEPEDSNIKAVTSGDTPYTSASRFEDLNLSPELMKGLYVEMKFEKPSKIQAISLPMIMTPPHKHLIAQAHNGSGKTTCFVLGMLSRVDPTLREPQALCICPTRELANQNMEVLQKMGKFTGITAELAVPDSTRGAPAATRGAPVSAHVVIGTPGTLKKWMAFKRLGLNHLKILVFDEADHMLATDGFRDDSLKIMKDIGRVNPNFQVLLFSATFNETVKDFVARTVKDPNQLFVKREDLALDSVKQYKVVCPKEQNKIEVIKDQIMELGDIGQTIIFVKTKASAQKVHKALAEMGYDVTSVHGNLTESDRDKIVKEFKECLTQVLIATDVIARGFDQQRVNLVVNYNLPTKYETGEPDYEVYLHRVGRAGRFGRKGAVFNLLLDDGWDKEVMEKIEKYFEANVKEIKSWNSEEEYKSALKEAGLLDEHHHHHH
notes: Recombinant protein from E. coli Rosetta (DE3); also called LOS-His

Tests used:
[1] = target: maltose-binding protein (MBP) (UniProt P0AEX9 27-392 = MBP); assay: in vitro pull-down on nickel resin, Coomassie blue staining
Description: Purified recombinant proteins are stained with Coomassie blue (left). A mixture of the proteins is bound to a nickel resin or amylose resin, and the resin-bound proteins are eluted and then stained with Coomassie blue (right);
After extensive washing of the resins, the bound proteins were eluted with 2×SDS sample buffer, and the eluted proteins were visualized by Coomassie blue staining.

[2] = target: T1, LOS4 (BiFC fusion protein, FIG. 8B) (Arabidopsis, UniProt Q93ZG7 1-496); assay: BiFC (FIG. 8), told again in the discussion
T1 construct: not shown: YFP fragment for BiFC
T1 sequence (looked up): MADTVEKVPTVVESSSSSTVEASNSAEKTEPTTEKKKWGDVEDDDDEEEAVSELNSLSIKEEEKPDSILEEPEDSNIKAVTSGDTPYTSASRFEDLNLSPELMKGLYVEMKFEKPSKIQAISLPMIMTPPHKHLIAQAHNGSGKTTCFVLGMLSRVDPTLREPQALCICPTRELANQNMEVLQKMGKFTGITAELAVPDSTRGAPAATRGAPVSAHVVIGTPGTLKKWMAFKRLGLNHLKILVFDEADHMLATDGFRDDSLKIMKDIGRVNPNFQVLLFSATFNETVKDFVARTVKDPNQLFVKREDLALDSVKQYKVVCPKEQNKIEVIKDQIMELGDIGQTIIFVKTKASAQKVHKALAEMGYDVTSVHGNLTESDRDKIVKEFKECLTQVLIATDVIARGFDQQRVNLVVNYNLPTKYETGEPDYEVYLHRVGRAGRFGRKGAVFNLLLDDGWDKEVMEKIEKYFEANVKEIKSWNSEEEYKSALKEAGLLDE

[3] = target: B1; assay: cell-based or functional assay
YFP^N-Gle1 = target: T2, YFP^N-Gle1 (Arabidopsis, UniProt Q0WPZ7 1-611); assay: BiFC in N. benthamiana leaves (agroinfiltration), confocal microscopy
T2 construct: BiFC construct expressed in N. benthamiana leaves by agroinfiltration; also called YFP^N-fusion protein of Arabidopsis Gle1; not shown: N-terminal fragment of YFP (YFP^N) for BiFC
T2 sequence: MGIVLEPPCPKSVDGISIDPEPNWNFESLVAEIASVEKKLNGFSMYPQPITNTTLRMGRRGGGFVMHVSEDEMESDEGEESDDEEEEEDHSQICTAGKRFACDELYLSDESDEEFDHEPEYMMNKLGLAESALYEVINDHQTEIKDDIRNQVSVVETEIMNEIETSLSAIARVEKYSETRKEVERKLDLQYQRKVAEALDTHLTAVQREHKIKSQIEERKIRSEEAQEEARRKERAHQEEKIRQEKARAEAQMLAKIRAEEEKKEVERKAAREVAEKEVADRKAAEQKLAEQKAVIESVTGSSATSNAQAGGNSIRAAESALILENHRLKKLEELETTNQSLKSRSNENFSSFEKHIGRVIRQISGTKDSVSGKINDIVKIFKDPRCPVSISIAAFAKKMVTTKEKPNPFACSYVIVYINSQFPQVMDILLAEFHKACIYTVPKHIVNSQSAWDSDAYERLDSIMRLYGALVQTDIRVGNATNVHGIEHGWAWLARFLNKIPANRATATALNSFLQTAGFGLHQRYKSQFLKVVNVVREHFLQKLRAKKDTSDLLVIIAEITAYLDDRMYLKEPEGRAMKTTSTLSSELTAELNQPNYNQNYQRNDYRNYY

Question: Does B1 bind [1]?
Answer: no binding

B2: IPK1 (BiFC fusion protein, FIG. 8B) (enzyme, Arabidopsis, UniProt Q93YN9 1-451, looked up)
chain: MEMILEEKDASDWIYRGEGGANLVLAYAGSSPLFVGKVIRIQKARRNDKAIKNANGVVSVLTSDEQHLWRENNELISSPNKEVLEQRYVKNVIIPLLGPKHVDAGVRVSVSKEFLECVDKKVTKQRPLWRVNAANVDTSHDSALILNDHSLFSQGISSGGDCISVEIKPKCGFLPTSRFIGKENMLKTSVSRFKMHQLLKLEYNEISEESEYDPLDLFSGSKESVLEAIKALYSTPQNNFRVFLNGSLILGGSGESTGRTSPEIGYAFEDALKGFIQSEDGHRTECFLQLVSDAVYGSGVLDRLLEIQKLDKLDIEGAIHSYYDLINQPCPICKEGKPLEAELSLHALPLDESLKIVKEYLIAATAKDCSIMISFQSRNAWDSEPSGDYVSLKPTNQTFDYKVHFIDLSLKPLKRMESYYKLDKKIISFYNRKQKAENTAEQIGNSKPSHS
notes: Expressed in N. benthamiana leaves by agroinfiltration; also called inositol 1,3,4,5,6-pentakisphosphate 2-kinase; not shown: YFP fragment for BiFC
Question: Does B2 bind [2]?
Answer: binds

B3: maltose-binding protein (MBP)-fused Gle1 (MBP-Gle1) (other, not shown: large carriers)
chain: MGIVLEPPCPKSVDGISIDPEPNWNFESLVAEIASVEKKLNGFSMYPQPITNTTLRMGRRGGGFVMHVSEDEMESDEGEESDDEEEEEDHSQICTAGKRFACDELYLSDESDEEFDHEPEYMMNKLGLAESALYEVINDHQTEIKDDIRNQVSVVETEIMNEIETSLSAIARVEKYSETRKEVERKLDLQYQRKVAEALDTHLTAVQREHKIKSQIEERKIRSEEAQEEARRKERAHQEEKIRQEKARAEAQMLAKIRAEEEKKEVERKAAREVAEKEVADRKAAEQKLAEQKAVIESVTGSSATSNAQAGGNSIRAAESALILENHRLKKLEELETTNQSLKSRSNENFSSFEKHIGRVIRQISGTKDSVSGKINDIVKIFKDPRCPVSISIAAFAKKMVTTKEKPNPFACSYVIVYINSQFPQVMDILLAEFHKACIYTVPKHIVNSQSAWDSDAYERLDSIMRLYGALVQTDIRVGNATNVHGIEHGWAWLARFLNKIPANRATATALNSFLQTAGFGLHQRYKSQFLKVVNVVREHFLQKLRAKKDTSDLLVIIAEITAYLDDRMYLKEPEGRAMKTTSTLSSELTAELNQPNYNQNYQRNDYRNYY
Question: B3 was tested. Which “LOS4 ATPase activity with RNA and MBP-Gle1 (2 µM), LOS4-His 1 µM” value [3] did it give?
Answer: ~3 fold

Question: And the “LOS4 ATPase activity with RNA, MBP-Gle1 (2 µM) and InsP6 (10 µM)” value [3]?
Answer: > 4 fold

B4: LOS4-YFP^C (other, Arabidopsis, UniProt Q93ZG7 1-496, looked up)
chain: MADTVEKVPTVVESSSSSTVEASNSAEKTEPTTEKKKWGDVEDDDDEEEAVSELNSLSIKEEEKPDSILEEPEDSNIKAVTSGDTPYTSASRFEDLNLSPELMKGLYVEMKFEKPSKIQAISLPMIMTPPHKHLIAQAHNGSGKTTCFVLGMLSRVDPTLREPQALCICPTRELANQNMEVLQKMGKFTGITAELAVPDSTRGAPAATRGAPVSAHVVIGTPGTLKKWMAFKRLGLNHLKILVFDEADHMLATDGFRDDSLKIMKDIGRVNPNFQVLLFSATFNETVKDFVARTVKDPNQLFVKREDLALDSVKQYKVVCPKEQNKIEVIKDQIMELGDIGQTIIFVKTKASAQKVHKALAEMGYDVTSVHGNLTESDRDKIVKEFKECLTQVLIATDVIARGFDQQRVNLVVNYNLPTKYETGEPDYEVYLHRVGRAGRFGRKGAVFNLLLDDGWDKEVMEKIEKYFEANVKEIKSWNSEEEYKSALKEAGLLDE
notes: BiFC construct expressed in N. benthamiana leaves by agroinfiltration; also called YFP^C-fusion protein of LOS4; not shown: C-terminal fragment of YFP (YFP^C) for BiFC
Question: Does B4 bind (YFP^N-Gle1)?
Answer: binds
